Laboratory results from the supplement of paper PMC9942255.
Where “and” joins values, the source holds several entries; their conditions need not be identical. Equal values may be shown once.

The sequences below were run on Bacillus subtilis DB104 (SP-AmyQ fusion secretion) (assay: AmyQ secretion efficiency, weighted average sort bin (1 = best secretion, 10 = worst) (bin number (weighted average, 1-10)); higher = lower secretion efficiency).
Summary of the method: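 In this assay, the secretion score is defined as the average bin number weighted by read frequency, normalised to beads per bin, with low-abundance sequences not counted. B. subtilis DB104 cells expressing mature AmyQ behind designed signal peptides (amyE-integrated) were enclosed with fluorescein-starch in ~65 nL alginate beads at about 0.3 cells per bead. Beads grew about 13 h at room temperature, were stained with nile red, and occupied beads went into 10 equally populated green/red fluorescence ratio bins by large-particle flow cytometry, whose amplicons were Illumina-sequenced.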

| Sequence | AmyQ secretion efficiency |
| --- | --- |
| MKRIRIPMTLALGAALTIAPLKRKASAEEN | 7.5 |
| MKTKTLFIFSAILTLSIFAPNTTFAQTA | 2 |
| MKKKRLAAGLTASAIVGTTLVVTPAEAATI | 4.26 and 3.28 |
| MKRRTRYKKQVVGILLSLAFVLFVFSFSERHE | 6.68 |
| MNFKKTTSIVVSALSISALALSVSGVASAHEI | 3.35 |
| MKKVLMAFIICLSLILSVLAAPPSGEKAESV | 6.63 |
| MRPKRPRKLILSAVLFLSCFFGARQTEASASKR | 4.56 |
| MKKAAAVLLSLGLVFIFVFAAVHVAEAKTK | 2.59 |
| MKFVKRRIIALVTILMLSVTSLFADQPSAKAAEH | 3.52 |
| MMTLCVMMLLFSAIASFPVSAQAKDQ | 7.11 |
| MSKWLIIAVSLAIAIVLFMYTKGEAKAAGM | 7.49 |
| MKVLLSALLLLLFAFEPSPSGKKL | 6.9 |
| MKKRLIGFLVLVPALIMSGITLIEDNKK | 7.79 |
| MKVPKTMLLSTAAGLLLSLTATSFSAHYV | 6.3 |
| MMKKLFHSTLIVLLFFSFFGVKRKIHAKKQ | 3.3 |
| MLKKKWMVGLLAGCLAAGGFSYNAFRTEN | 5.68 |
| MKKIVSILFMFGLVMGFSQFQPSTVFADED | 4.03 |
| MKKAFILSAAAAVGLFTFGGVQQASMKEL | 5.04 |
| MKRIRIPMTLALGAALTISFASAEEN | 6.71 |
| MLCVMMLLFSAIASFPVSAQYKDQ | 6.57 |
| MKKKKRKFVLIVCIIFTSALFPTFSSVTAAQG | 1.03 |
| MRKNNNLFFFFMTIFAFLTGLMMFGTITAASASPD | 3.7 |
| MNLRKILLSSALSLGMLVSAAPELATSS | 3.72 |
| MKKAFILSAAAAVGLFTFGGVQQASAADD | 3.55 |

| Sequence | AmyQ secretion efficiency |
| --- | --- |
| MKSCKQLIVCSLAAILLLIPSVSFGADS | 3.57 |
| MFNRLFRMSSFIVCFLAALIMAFTLPNSVYAQKP | 1.95 |
| MKSKGSIMACLILFSFTITTFINTETSSAFSN | 3.41 |
| MKLKSKLFVICLAAAAIFTAAGVSANNEALDF | 5.76 |
| MNVLLSALLLLLFAFEPSASGKKL | 7.25 |
| MKSKGSIMACLILFSFTITTFINTETISCFSN | 7.73 |
| MKKWLIIAVSLAIAIVLFMSVSFFAKAAGM | 5.66 |
| MKKQIITATTAVVLGSTLFAGAKSAQSI | 3.92 |
| MLKKKWMVRRRKGCLAAGGFSYNAFATEN | 7.58 |
| MTTKFTALAVFLLCFMPAAKIEHTQASLL | 4.17 |
| MKRKLLSSLAISALSLGLLVSAPTASFGAES | 3.96 |
| MLKKKWMVGLLAGCLAAGGFSYNWFATEN | 6.53 |
| MMLSVKIAGVLTVAAAAMTAKMYATAKGN | 5.4 |
| MRSYIKVLTMCFLGLILFVPTKLADNS | 5.85 |
| MKKAFLVFLMVVLVLMVFLTVKQQESVAQAKQL | 3.05 |
| MKLAKRVSALTPSTTLAITAKRKEL | 8.52 |
| MKKRLIAPMLLSAASLAFFAMSGSDQAAAY | 4.18 |
| MKVLLSALLLLLFAFEPSASPKKL | 2.66 |
| MKKAKRKRLSVVLVTTVFLVKQQESVAQAKQL | 5.44 |
| MKLSVKIAGVLTVAAAAMTAKMYMTAKGN | 6.8 |
| MGMKKKYTQGSRYRALGLALVGGGTWAAFN | 7.3 |
| MRKYTVIASILLSFLSVLFGFHHESKAFPV | 3.04 |
| MKKAFLVFLSVVLVTTVFLFVKQQESVAQAKQL | 2.31 |
| MKMKSGMEQAVSVLLLLSRLPVQYSLTSE | 5.01 |

| Sequence | AmyQ secretion efficiency |
| --- | --- |
| MKKKQVMLRKKKAAGLGLTALHSAPAAKAAPL | 7.14 |
| MIAYFGKCLLLVTIMFLGVLGMQQANHG | 5.4 |
| MMIKQCVICLSLLVFGTTKAHAEET | 2.63 |
| MKSKGSIMACLILFSFTITTFINTETISAFRR | 6.09 |
| MMSTIMSFVAVAALSTTAFGAHASAKEI | 4.72 |
| MLKKKWMVGLLAGCLAAGGFSYNAFADEE | 6.94 |
| MKVLLSALLLLLFAFGPSASGKKL | 5.45 |
| MKIRKILLSSALSFGMLISAVPALLAGT | 4.82 |
| MKKWLIIAVSLAIAIVLFMYTKGETKAAGM | 3.24 |
| MRFTKVVGFLSVLGVFPLTAQAEKA | 5.6 |
| MTKRGIQAFAGGIILATAVLAAVFKKTKKDQAAAV | 7.92 |
| MKKKRLLAGALTATVLFGTCAVDVPGIISPKTAEAASQ | 1.66 |
| MKSKGSIMACLILFSFTITTFINTETISEFSN | 7.72 |
| MGTLTTLTSLLLAGLCTAAQMVFVTHASAEES | 3.24 |
| MKKWIYVVLVLSIAGIGGFSVHAAED | 5.68 |
| MKTLRTKCRKKILSGVIFFGLKIDAKDI | 6.97 |
| MTKKAWFLPLVCVLLISGWLAPAASASLQTT | 3.41 |
| MAIIIAIIAAVIVIAALITFNVRNAKKR | 7.34 |
| MSSYIKVLTMCFLGLILFVPTALADNS | 1.7 |
| MFKKLLLATSALTFSLSLVLPLDGHYKAQEV | 6.94 |
| MKRIRIPMTLALGAALTIAPLSFASWEEN | 6.97 |
| MRKKCSTCQWRLVLLLSCLSGKSAYAATS | 5.76 |
| MAIIIAIIAAVIVIAALITFNVRNISPG | 7.65 |
| MRRKKKRVLTMCFLGLILFVPTALADNS | 3.09 |

| Sequence | AmyQ secretion efficiency |
| --- | --- |
| MSNLCVMMLLFSAIASFPVSAQAKDQ | 3.93 |
| MKKKQVMLALTAAAGLGLTALHSAPAVAGAAKAAPL | 2.43 |
| MKVLLSALLLLLFAFEPSASTKKL | 5.63 |
| MKRIRIPMTLALGAALTIAPLSFASAATD | 2.9 |
| MRKSLITLGLASVIGTSSFLIPFTKASAETL | 2.6 |
| MIKGIIRFLLVSFVLFFALSTGITGVQAAPA | 2.2 |
| MKKVLMAFIICLSLILSVLAAPPSGHKAESV | 7.55 |
| MKKAFILSAAAAVGLFTFDDDQQASAKEL | 2.77 |
| MTMLRKIIGWILLLCIIPLFAFTVIASSKEV | 6.98 |
| MKMKSGMEQAVSVLLLLSRLPVQASLRRK | 7.08 |
| MAIIIAIIAAVIVIAALITFNVRNFSPG | 6.5 |
| MKNMSCKLVVSVTLFFSFLTIGPLMHAQNS | 1.39 |
| MNKPTKLRRKKKRAAGMTAAAAGGAGTIHAQQP | 7.88 |
| MKKRLIAPMLKRRKSLAFFAMSGSAQAAAY | 7.31 |
| MSKRLIAPMLLSAASLAFFAMSGSAQAAAY | 3.13 |
| MGMKKKLSLGVASAALGLALVGGGTWNAFN | 6.68 |
| MKVLLSALLLLLFAFEPSESGKKL | 6.5 |
| MKKWMASTSFSMGLFLAAAVLLCLMVPQQIQGASS | 5.01 |
| MLKRTSFVSSLFISSAVLLSILLGSGQAHAQSA | 2.06 |
| MKKRFFGPIILAFILFAGAIHIPS | 5.21 |
| MLKRTSFVSSLFISSAVLLSILLPSGQIHAQSA | 2.68 |
| MTTTSIFVITCVMAASLTLGSLLPAGYASAKED | 3.58 |
| MFNRLFRVCFLAALIMAFDDDNSVYAQKP | 2.33 |
